For 3 substances, Kd results are on record in publication PMC11873350.

pKd: −log10 of the molar value. Where two headings read alike, the source gives them in different places. Where only a bound is given, the exact number is not on record here.

Holding throughout (assay): BLI
(BLI is a label-free optical method that tracks binding on a fibre tip over time.)

One test concerns the target SHH002-hu1-MICA (human) (UniProt Q29983).
In test [1] the target is rhNKG2D-Fc (human) (UniProt P26718).
Test [2] has the same target. This is another data set of the same source.

UniProt Q29983, sequence (Q29983 whole entry, looked up): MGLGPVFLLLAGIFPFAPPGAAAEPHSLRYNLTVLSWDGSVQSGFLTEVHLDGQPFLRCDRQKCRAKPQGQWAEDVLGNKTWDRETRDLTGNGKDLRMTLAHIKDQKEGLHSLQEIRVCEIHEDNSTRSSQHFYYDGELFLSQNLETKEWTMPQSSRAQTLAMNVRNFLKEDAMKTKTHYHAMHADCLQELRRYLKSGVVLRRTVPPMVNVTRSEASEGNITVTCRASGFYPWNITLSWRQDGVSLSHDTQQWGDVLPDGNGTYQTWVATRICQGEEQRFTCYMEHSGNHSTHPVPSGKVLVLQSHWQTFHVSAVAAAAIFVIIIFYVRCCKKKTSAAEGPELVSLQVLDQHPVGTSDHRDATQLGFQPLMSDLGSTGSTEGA

By pKd is commonly meant the Kd on a negative log10 scale, so that one unit is a factor of ten. The low end stands for a high Kd, the high end for a low Kd. For the substance “rhFzd7-His (from UniProt O75084 33-574) (receptor)”, the pKd in the test with SHH002-hu1-MICA (human) was greater than 12.00.
As to “rhMICA-His (from UniProt Q29983 24-383) (ligand)”, the results for the negative-log Kd (pKd) in the test with rhNKG2D-Fc (human) [1] and in the test with rhNKG2D-Fc (human) [2] were 8.90 and 7.90, respectively.
In the test with SHH002-hu1-MICA (human), “rhNKG2D-Fc (from UniProt P26718 73-216) (Fc fusion)” had a pKd of 7.34.
